{"source": "patent US20180282403A1", "about": "“AGENTS FOR REDUCING THE ACTIVITY OF GDF15” (GENAGON THERAPEUTICS AB, priority 2015, published 2018)", "molecules": {"B1": {"name": "pyroglutamylated RFamide Peptide Receptor (QRFPR) (receptor)", "chain": "MQALNITPEQFSRLLRDHNLTREQFIALYRLRPLVYTPELPGRAKLALVLTGVLIFALALFGNALVFYVVTRSKAMRTVTNIFICSLALSDLLITFFCIPVTMLQNISDNWLGGAFICKMVPFVQSTAVVTEILTMTCIAVERHQGLVHPFKMKWQYTNRRAFTMLGVVWLVAVIVGSPMWHVQQLEIKYDFLYEKEHICCLEEWTSPVHQKIYTTFILVILFLLPLMVMLILYSKIGYELWIKKRVGDGSVLRTIHGKEMSKIARKKKRAVIMMVTVVALFAVCWAPFHVVHMMIEYSNFEKEYDDVTIKMIFAIVQIIGFSNSICNPIVYAFMNENFKKNVLSAVCYCIVNKTFSPAQRHGNSGITMMRKKAKFSLRENPVEETKGEAFSDGNIEVKLCEQTEEKKKLKRHLALFRSELAENSPLDSGH", "notes": "Endogenous receptor of MCF-7 / U2OS cells and human tissues; also called GPR103; orexigenic neuropeptide QRFP receptor"}, "B2": {"name": "endogenous GDF15 (in MCF-7 cells treated with Sulindac sulphide and in human tumour tissue arrays) (ligand, UniProt Q99988 197-308, looked up)", "chain": "ARNGDHCPLGPGRCCRLHTVRASLEDLGWADWVLSPREVQVTMCIGACPSQFRAANMHAQIKTSLHRLKPDTVPAPCCVPASYNPMVLIQKTDTGVSLQTYDDLLAKDCHCI", "notes": "Detected in complex with receptors by in situ PLA"}, "B3": {"name": "AP1 (control protein): AAAQEADGARSAVVAAGGGSSGQVTSNGSIGRDPPAETQPQNPPAQPAPNAGGGGSGGGGSGGGGS-Fc mouse IgG1 (Fc fusion, not shown: a dimerising Fc or GST)", "chain": "AAAQEADGARSAVVAAGGGSSGQVTSNGSIGRDPPAETQPQNPPAQPAPNAGGGGSGGGGSGGGGS", "notes": "also called control polypeptide"}}, "key": {"GDF15": {"molecular_target": "T1, GDF15 (Homo sapiens, UniProt Q99988)", "T1 construct": "purchased Abcam", "T1 sequence (Q99988 197-308 limits assumed)": "B2 chain", "test": "GST-pulldowns of GDF15 with GST-fusion QRFPR and CLPTM1 fragments", "format": "binding", "conditions": "equal amounts of GST-fusion protein and GDF15, 4 hrs at 4° C., extensive washes incl. high salt; FIG. 8B", "experimental": "We then assembled the GDF15 binding motifs from QRFPR and CLPTM1 using synthetic hybridized oligonucleotides corresponding to the motifs from either extracellular domain 3, 4 (QRFPR) or CLPTM1. The oligonucleotides were inserted in a pGEX4T1 backbone, expressed in BL21 DE3pLys bacteria and purified. The correct sequences were confirmed by Sanger sequencing.\nWe then incubated the purified GST-fusion proteins with equal amounts of GDF15 and subjected the analytes to extensive washes including high salt buffers.\nIn short, selected fragments of the receptors were constructed from synthetic oligomers (ultramers, IDT technologies), the flanking ends digested by restriction enzymes, and inserted in a pGEX 4T-1 vector (Pharmacia Biotech). The constructs were cloned in a DH5 a library efficiency bacteria (Invitrogen). The correct clones were identified by analytical restriction digest run on a 2% agarose gel, and validated by Sanger sequencing at the Uppsala sequencing centre.\nThe validated clones were used to transform BL21pLYs bacteria. […]\nThe material was denatured by boiling in SDS loading dye supplemented with DDT for 5 min, then run on a 12% acrylamide gel (120 V for 70 min) and analysed by ECL and CCD camera (Biorad). […]"}, "QRFPR [1]": {"tested_on": "QRFPR", "test": "In situ PLA detection of RAB11-QRFPR double positive endosomes in MCF7 cells", "format": "cell-based", "conditions": "MCF7 cells; GDF15 pre-incubated with receptor fragment; FIG. 9A-D", "from_the_text": "The RAB11 protein is a marker for recycling endosomes back to the cell surface, and the RAB11 pathway is also involved in exosome assembly (Savina et al., 2005; Savina et al., 2002). RAB11 was thus thought to be a likely candidate to be involved in QRFPR reduction on the cell surface induced by GDF15\nAn in situ PLA assay was developed to detect the proximity of RAB11 and QRFPR. In the absence of GDF15, only a low signal is observed (FIGS. 5A and 5C).\n(§1) We choose to use this assay as a way to investigate if the activity of GDF15 could be inhibited by various agents. […] GDF15-induced formation of RAB11/QRFPR endosomes is inhibited by QRFPR peptides (FIG. 9A-D). Equal amounts of a mastermix of GDF15 was aliquoted and pre-incubated in PBS with the various receptor fragment before addition to cells. Sequentially, the cells were treated with either PBS, GDF15 or GDF15/QRFPR-derived peptide mixes."}, "QRFPR [2]": {"tested_on": "QRFPR", "test": "In situ detection of QRFPR at the cell surface after GDF15 with or without peptide (FIG. 10A-C)", "format": "cell-based", "conditions": "cells exposed to GDF15 + synthetic peptide", "from_the_text": "(§2) A-C) In situ detection of QRFPR at the cell surface. A) Negative control cells with no added GDF15. B) Cells after exposure to GDF15. C) Cells after exposure to GDF15+ synthetic peptide GEKEYDDVTIK derived from extracellular domain 4 of QRFPR. […] D-F) In situ PLA detection of ACTRIIB at the cell surface. D) Control cells with no added P518. E) Cells after exposure to P518. F) Cells after exposure to P518+ synthetic peptide GEKEYDDVTIK derived from extracellular domain 4 of QRFPR in 125 molar excess. The ability of P518 to increase the level of ACTRIIB at the cell surface was not affected by the peptide.\nFIGS. 10A-10C confirm that GDF15 reduces the level of QRFPR at the cell surface, and that this reduction may be reversed by a peptide derived from extracellular loop 3 (extracellular domain 4) of QRFPR."}, "QRFPR [3]": {"molecular_target": "T2, QRFPR (Homo sapiens, UniProt Q96P65)", "T2 construct": "endogenous in cells", "T2 sequence (Q96P65 1-431)": "B1 chain", "test": "ACTRIIB assay: in situ PLA detection of ACTRIIB at the cell surface after QRFPR agonist P518", "format": "cell-based", "conditions": "P518 + peptide in 125 molar excess, FIG. 10D-F", "from_the_text": "as §2\nThe effect of the QRFPR agonist p518 was measured. In short, p518/QRFP-26 was purchased from Phoenix Peptides, CA and processed according to the manufacturer's instructions. Cells were serum-starved prior to P518 stimulation overnight.\nP518 was mixed with either PBS or QRFPR receptor fragment dissolved in PBS prior to stimulation of cells."}, "QRFPR [4]": {"tested_on": "QRFPR", "test": "In situ PLA detection of QRFPR at the cell surface in U2OS osteosarcoma cells", "format": "cell-based", "conditions": "U2OS osteosarcoma cells; GDF15 + peptide; FIG. 9E", "from_the_text": "A-D) In situ PLA detection of the Rab11-QRFPR complex following exposure of MCF7 cells to GDF15. A) +Ctrl peptide. B) +QRFPR extracellular N-terminal peptide. C-D) +QRFPR extracellular loop3 (domain 4) peptide. The level of the Rab11-QRFPR complex is reduced by the peptide from extracellular loop3 of QRFPR. E) in situ PLA detection of QRFPR in U2OS osteosarcoma cells.\nas §1"}, "ACTRIIB": {"molecular_target": "T3, ACTRIIB (UniProt Q13705 19-512, limits assumed)", "T3 construct": "whole, on cells; also called activin type II receptor B", "T3 sequence (Q13705 19-512 limits assumed)": "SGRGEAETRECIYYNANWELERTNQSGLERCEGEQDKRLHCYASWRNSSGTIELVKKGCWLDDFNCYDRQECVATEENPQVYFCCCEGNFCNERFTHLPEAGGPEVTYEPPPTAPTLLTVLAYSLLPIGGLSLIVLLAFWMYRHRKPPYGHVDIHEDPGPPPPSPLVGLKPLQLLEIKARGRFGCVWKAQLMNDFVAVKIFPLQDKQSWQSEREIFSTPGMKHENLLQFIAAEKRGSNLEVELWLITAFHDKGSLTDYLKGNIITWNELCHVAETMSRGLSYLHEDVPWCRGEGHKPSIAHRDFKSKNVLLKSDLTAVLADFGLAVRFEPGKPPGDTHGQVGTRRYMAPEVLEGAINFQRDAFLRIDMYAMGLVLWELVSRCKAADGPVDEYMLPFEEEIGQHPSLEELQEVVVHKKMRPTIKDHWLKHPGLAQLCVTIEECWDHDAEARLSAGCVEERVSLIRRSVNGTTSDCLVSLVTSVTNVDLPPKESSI", "test": "in situ PLA on serum-starved MCF7 cells", "experimental": "MCF7 cells were stimulated with GDF15 (GDF15 from isolated mammalian source or recombinant derived from E. coli purchased from Abcam and Biovision). An assay was developed for monitoring the activity of GDF15 and to investigate the dynamics of receptor(s) such as QRFPR modulation by the ligand.\nSerum-starved MCF7 cells were treated with GDF15, and an in situ PLA detection assay was developed to detect the interaction between ACTRIIB and QRFPR using antibodies from two different species, thus allowing the use of Duolink secondary detection reagents. The presence of the QRFPR-ACTRIIB complex was detected in the absence of GDF15 (see FIG. 3A, indicated by arrows)."}, "[5]": {"molecular_target": "T4, Cleft Lip and Palate Transmembrane protein 1 (CLPTM1) (human, UniProt O96005 2-669)", "T4 construct": "Endogenous receptor of NK-92 cells, CD14+ cells and human tissues", "T4 sequence": "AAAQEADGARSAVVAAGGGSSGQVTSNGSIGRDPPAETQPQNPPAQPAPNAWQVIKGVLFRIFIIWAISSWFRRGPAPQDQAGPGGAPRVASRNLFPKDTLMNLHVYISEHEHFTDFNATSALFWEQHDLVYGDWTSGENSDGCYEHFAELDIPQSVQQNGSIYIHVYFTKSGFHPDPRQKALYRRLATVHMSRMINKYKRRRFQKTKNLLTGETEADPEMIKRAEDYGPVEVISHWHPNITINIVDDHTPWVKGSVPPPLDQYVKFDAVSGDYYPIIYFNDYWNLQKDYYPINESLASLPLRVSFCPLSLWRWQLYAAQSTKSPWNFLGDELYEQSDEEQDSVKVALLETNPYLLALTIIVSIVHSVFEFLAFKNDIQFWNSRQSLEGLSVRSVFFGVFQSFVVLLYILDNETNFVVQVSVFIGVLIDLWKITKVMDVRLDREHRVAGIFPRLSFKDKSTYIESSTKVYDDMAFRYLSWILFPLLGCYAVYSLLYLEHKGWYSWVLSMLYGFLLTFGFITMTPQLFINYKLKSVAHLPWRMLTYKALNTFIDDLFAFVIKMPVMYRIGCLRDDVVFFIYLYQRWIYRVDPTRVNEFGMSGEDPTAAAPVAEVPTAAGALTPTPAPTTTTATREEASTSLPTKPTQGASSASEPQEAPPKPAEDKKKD", "test": "in situ PLA on tissue micro array"}, "[6]": {"molecular_target": "B1", "test": "in situ PLA on tissue micro array"}, "[7]": {"molecular_target": "T5, Growth and differentiation factor 15 (GDF15) (UniProt Q99988 197-308, limits assumed)", "T5 construct": "Purchased GDF15 added to cells, pull-downs, peptide arrays and ELISA; also called MIC1", "T5 sequence (looked up)": "B2 chain", "test": "Fc-fusion pull-down, said to agree with the array results", "experimental": "20 μg Fc fusion protein constructs were incubated with 0.5 μg GDF15 and protein-G bead with mixing for 6 hrs in +4 C in PBST+1% BSAs. Wash 6 times: 3 times PBST, change tubes, 2 washes PBST+220 mM NaCl. Last wash PBS. The beads were collected using a table-top centrifuge set at 500 g for 5 minutes between washes. Detection The material was loaded on a 4-12% gradient gel, run at 100 volt, transferred to PVDF membrane using a Turbo Tank blot system, blocked by PBS with 3% BSA 1 hr RT, and incubated with RD systems a monoclonal anti-GDF15 antibody overnight. A secondary antibody: mouse HRP 1:2000 was used for detection. The size of band was estimated by comparing with a seeblue2 protein ladder marker run in an adjacent lane."}}}
{"molecule": "ALFWEQHDLVYGDWTS (listed as Homo sapiens) [SEQ ID NO:18]", "values": [{"measurement": "GDF15 binding to GST-fusion protein (GST-pulldown)", "setting": "GDF15", "value": "Increased binding"}]}
{"molecule": "EIKYDFLYEKEHICCLEEWTS (listed as Homo sapiens) [SEQ ID NO:7]", "values": [{"measurement": "GDF15 binding to GST-fusion protein (GST-pulldown)", "setting": "GDF15", "value": "Increased binding"}]}
{"molecule": "GEKEYDDVTIK [synthetic peptide derived from extracellular domain 4 of QRFPR]", "values": [{"measurement": "GDF15-induced RAB11-QRFPR double positive endosomes", "setting": "QRFPR [1]", "value": "substantially reduced"}, {"measurement": "QRFPR at the cell surface", "setting": "QRFPR [2]", "value": "reversed the removal of QRFPR from the cell surface"}, {"measurement": "P518 induced ACTRIIB levels", "setting": "QRFPR [3]", "value": "not affected"}, {"measurement": "P518 induced ACTRIIB levels", "setting": "QRFPR [3]; listed as QRFPR receptor fragment", "value": "slight increase of ACTRIIB"}, {"measurement": "level of QRFPR detected at the cell surface", "setting": "QRFPR [4]", "value": "restore the level of QRFPR detected at the cell surface to the same level as control cells"}]}
{"molecule": "B1", "values": [{"measurement": "binding result", "setting": "ACTRIIB", "value": "binds"}]}
{"molecule": "B2", "values": [{"measurement": "binding result", "setting": "[5]", "value": "binds"}, {"measurement": "binding result", "setting": "[6]", "value": "binds"}]}
{"molecule": "B3", "values": [{"measurement": "binding result", "setting": "[7]", "value": "no binding"}]}
